Measurements from patent publication US20210403591A1 (OSSIANIX, published 2021).
Like-named read-outs stand apart in the source and are kept apart here.

Key:
[1] = target: T1, purified WT mTfR-1 (ELISA coat) (mouse, UniProt Q62351 89-763); experiment: ELISA, coated purified WT mTfR1
Procedure: Serial dilutions the VNAR-Fc fusion protein in blocking buffer (PBS-0.1% Tween+2.5% milk) were exposed to pre-blocked Nunc Maxisorp 96-well plates coated with the M1, M2 and M3 mutants at 1 μg/mL. After washing in PBS-0.1% Tween-20, binding of Clone C-hFc fusion was detected using an anti-human IgG (Fc specific) peroxidase antibody (Sigma-Aldrich) and the plates were developed using the chromogenic substrate TMB. Absorbance at 450 nm was recorded using an Envision multi-well reader (Perkin Elmer) and EC50s were calculated by fitting curves (non-linear regression) using GraphPad Prism®.
The binding of Clone C compared to the 8D3 antibody was tested on purified WT mTfR1 in addition to the three mutants by ELISA (FIG. 26).

[2] = target: T2, purified mTfR1 mutant M3 (NGA) (mouse, UniProt Q62351 89-763); experiment: ELISA, coated purified mTfR-1
T2 construct: also called S255A

[3] = target: T3, purified mTfR1 mutant M2 (NAS) (mouse, UniProt Q62351 89-763); experiment: ELISA, coated purified mTfR-1
T3 construct: also called G254A

[4] = target: T4, purified mTfR1 mutant M1 (AGS) (mouse, UniProt Q62351 89-763); experiment: ELISA, coated purified mTfR-1
T4 construct: also called N253A

[5] = target: T2, purified mTfR1 mutant M3 (NGA); experiment: ELISA, coated purified mTfR-1; remark: listed apart in the source
[6] = target: T3, purified mTfR1 mutant M2 (NAS); experiment: ELISA, coated purified mTfR-1; remark: listed apart in the source
[7] = target: T4, purified mTfR1 mutant M1 (AGS); experiment: ELISA, coated purified mTfR-1; remark: listed apart in the source
[8] = target: T1, purified WT mTfR-1 (ELISA coat); experiment: ELISA, coated purified mTfR-1
[9] = target: T3, purified mTfR1 mutant M2 (NAS); experiment: ELISA, plate coated with purified mTfR-1 mutant M2 (NAS), serial dilution of the binder; y axis Norm. Vmax OD at 650nm

T1 sequence (Q62351 89-763): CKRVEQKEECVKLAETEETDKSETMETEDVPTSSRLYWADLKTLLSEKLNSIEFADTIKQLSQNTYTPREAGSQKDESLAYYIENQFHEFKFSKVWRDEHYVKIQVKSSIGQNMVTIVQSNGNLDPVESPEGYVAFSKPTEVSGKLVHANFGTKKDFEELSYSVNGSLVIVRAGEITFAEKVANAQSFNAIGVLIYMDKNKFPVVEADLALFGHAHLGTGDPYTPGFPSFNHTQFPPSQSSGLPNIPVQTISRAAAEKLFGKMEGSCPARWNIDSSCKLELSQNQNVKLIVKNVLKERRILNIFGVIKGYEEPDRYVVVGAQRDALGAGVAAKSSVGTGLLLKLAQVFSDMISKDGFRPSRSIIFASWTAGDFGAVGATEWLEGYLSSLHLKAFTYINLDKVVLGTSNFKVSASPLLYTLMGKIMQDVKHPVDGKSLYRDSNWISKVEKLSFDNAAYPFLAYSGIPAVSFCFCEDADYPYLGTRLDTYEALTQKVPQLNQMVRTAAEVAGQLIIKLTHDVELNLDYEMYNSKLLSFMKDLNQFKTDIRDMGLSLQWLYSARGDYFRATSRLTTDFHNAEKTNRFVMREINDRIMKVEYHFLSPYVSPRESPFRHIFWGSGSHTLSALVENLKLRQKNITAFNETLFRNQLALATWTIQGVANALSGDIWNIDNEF
T4 sequence (Q62351 other isoform, or with tags, fused parts or gaps mutant): as the sequence (Q62351 89-763) above, with N165A counted along it
T3 sequence (Q62351 other isoform, or with tags, fused parts or gaps mutant): as the sequence (Q62351 89-763) above, with G166A counted along it
T2 sequence (Q62351 other isoform, or with tags, fused parts or gaps mutant): as the sequence (Q62351 89-763) above, with S167A counted along it

EC50 [1]	EC50 [2]	EC50 [3]	EC50 [4]	EC50 [5]	EC50 [6]	EC50 [7]	EC50 [8]	EC50 (read off the curve) [9]	Binder
	2.6 nM	200 nM	5.9 nM						Clone C variant 18 VNAR-hFc (Fc fusion, not shown: a dimerising Fc or GST, also called Clone C v18; Clone C var; 18) ARVDQTPQTITKETGESLTINCVLRDSNCALSSTYWYRKKSGSTNEENISKGGRYVETVNSGSKSFSLRINDLTVEDSGTYRCNVVQYPQYPNYFWCDVYGDGTAVTVN
	0.79 nM	13 nM	1.1 nM						Clone C variant 13 VNAR-hFc (Fc fusion, not shown: a dimerising Fc or GST, also called Clone C v13; Clone C var; 13) ARVDQTPQTITKETGESLTINCVLRDSNCALSSTYWYRKKSGSTNEENISKGGRYVETVNSGSKSFSLRINDLTVEDSGTYRCNVVQYPQQDNYFWCDVYGDGTAVTVN

More lines, now with the values behind:

Binder	EC50 [1]	EC50 [2]	EC50 [3]	EC50 [4]	EC50 [5]	EC50 [6]	EC50 [7]	EC50 [8]	EC50 (read off the curve) [9]
Clone C VNAR-hFc fusion (Fc fusion, not shown: a dimerising Fc or GST, bivalent VNAR-Fc; also called Clone C-hFc) ARVDQTPQTITKETGESLTINCVLRDSNCALSSTYWYRKKSGSTNEENISKGGRYVETVNSGSKSFSLRINDLTVEDSGTYRCNVVQYPSYNNYFWCDVYGDGTAVTVN	65.4 nM								
8D3 antibody (anti-mouse TfR-1 control; 8D3-hFc formatted antibody) (antibody, V domains shown) VH: EVQLVESGGGLVQPGNSLTLSCVASGFTFSNYGMHWIRQAPKKGLEWIAMIYYDSSKMNYADTVKGRFTISRDNSKNTLYLEMNSLRSEDTAMYYCAVPTSHYVVDVWGQGVSVTVSS VL: DIQMTQSPASLSASLEEIVTITCQASQDIGNWLAWYQQKPGKSPQLLIYGATSLADGVPSRFSGSRSGTQFSLKISRVQVEDIGIYYCLQAYNTPWTFGGGTKLELK	11.1 nM				0.51 nM	0.33 nM	0.35 nM	0.49 nM	~4 nM
